Target: CD40CR (CD40 counter-receptor), 39 kD membrane protein of activated murine helper T cells (murine) (UniProt P27548)
Test: flow cytometry on activated Th, FITC-RG7 detection

Chain of UniProt P27548 (P27548 whole entry): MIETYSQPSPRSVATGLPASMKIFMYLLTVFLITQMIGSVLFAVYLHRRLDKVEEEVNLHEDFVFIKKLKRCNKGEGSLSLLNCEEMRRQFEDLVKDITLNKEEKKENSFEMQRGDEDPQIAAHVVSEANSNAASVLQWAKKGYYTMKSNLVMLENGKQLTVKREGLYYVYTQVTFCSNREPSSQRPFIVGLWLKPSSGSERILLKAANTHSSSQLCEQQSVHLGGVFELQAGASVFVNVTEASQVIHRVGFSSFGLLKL

percent positive cells: 61%
Substance: MR1, hamster anti-murine gp39 monoclonal antibody

Source: patent publication US6376459
